# Test results reported in a protein production outcome set (Wang et al. 2014).
# Assay: label from the status in PepcDB records
# 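Also: failed if final PepcDB status was selected cloned or expressed and not failed if soluble or beyond.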
row,Sequence,protein production
1,MTRRGVALVARRLPSSPGRVYAVKIDEGEDVHSVLSSLAEAEDLGFAMVTGIGGMAEATVAFYSPPEATYYTVDVKPPEGRVIEVAAMTGNIVKTSQGYSVHIHVALGVSPGKSISGHLVKGVVKPFMEVFVVELVSGQGTPGTSVFDHREGFKASYKRLELEHHHHHH,failed
2,MAGGVDGPIGIPFPDHSSDILSGLNEQRTQGLLCDVVILVEGREFPTHRSVLAACSQYFKKLFTSGAVVDQQNVYEIDFVSAEALTALMDFAYTATLTVSTANVGDILSAARLLEIPAVSHVCADLLDRQIL,failed
3,MTPDDQLSAFLGEQPATSRADLFTAVVMQKIERRAFLRDVAAAGGWAAVVGLVAWACAPVLNVLIGALAPGLAPAAAALALVAATLLVSSPSVRRRLGLAAV,failed
4,MCGIVGANSTRNVTNILIEGLKKLEYRGYDSAGLAIIDDKNNIDICKEVGKVIELEKSVHNLANFKGDIGIAHTRWATHGKPSKNNSHPHASESFCIVHNGVIENFAELKKVLINDGYKFKSDTDTEVIAHLLQKEWRDNFSIVDNIKYIMAMLKGAYAVAIISQKFSDKIVAVRSGSPLVIGVGIDENFISSDALSLLPVTNKFSYLDEGDIAIISKDNVEVFDNNGAAKNLEVEEYNYSSSSASKDGYKHYMLKEIYEQPEAVSNTILASLADGEISLDSFDKRAKELFEKTKHICIVACGTSYNAGMTAKYWIEKYAKVPCSVEIASEIRYRDNVVVDGSLFVSISQSGETADTLESLRKSKKQNYVGSMCICNVPNSSLVRESDIAFMTKAGVEIGVASTKAFTTQLVALAIFTLVIAKLKNSLTDQQIAKYTEELKNIRALVMGALKLDTEIDQISEYFSDKEHTIFLGRGLYYPIAIEGALKLKEISYIHAEAYPSGELKHGPLALVDKNMPIVAVVPNDELLDKTLSNLQEVHARGGKLILFVDKAVKERVNFDNSIVLELDAGHDFSAPVVFTIPLQLLSYHVAIIKGTDVDQPRNLAKSVTVE,not failed
5,MSATGLEVFDRTLHKTHAWLKAIMEELGTEDRHKAYLALRAVLHALRDRLTVEEVAQLAAQLPMLVRGLYYEGWDPTGKPLKERHKEAFLAHVAEELKTPSGPAVDPEAATRAVFKVLSREISQGELEDVLGLLPKELRALWPQG,not failed
6,MKQLNDGDFIKIEFEMRVGEEKKLVSTSKADLAKENDIFDENARYGDIVVIVGQEGIFKEVNEAFRKAEPGQEVEVEVPPEDAFGQRLPSNIKIHTMREFQRLEHHHHHH,not failed
7,MIDEKFLIESNELVESSKIVMVGTNGENGYPNIKAMMRLKHDGLKKFWLSTNTSTRMVERLKKNNKICLYFVDDNKFAGLMLVGTIEILHDRASKEMLWTDGCEIYYPLGIDDPDYTALCFTAEWGNYYRHLKNITFKIDEIYNY,not failed
8,MNARVHQPVHTAQHAPSYYAATLNRRIECPPLAGEEQADVCVVGGGFSGVNTALELAQRGFSVVLLEAHQIGWGASGRNGGQLIRGVGHDVEQFLPVIGADGVKALKLMGLEAVEIVRRRVEQYAIDCDLRWGYCDLANKPGDYQGFREDMEELQALGYRHEMRLVPAAEMRSVIGSDRYVGGLVDMGSGHLHPLNLVLGEAAAAQSLGVRLFERSTVMRIDYGTEVQVHTATGKVRAKTLVLGCNAYMNDLNPLLGGKVLPAGSYVIATEPLDEKLARQLLPQNMAVCDQRVALDYYRLSADNRLLFGGACHYSGRDPSDIAAYMRPKMLEVFPQLANVRIDYQWGGMIGIGANRLPQIGRLPGQPNVYFAQAYSGHGVNATHLAGQLLAEAIGGQQSDGFDLFAKVPHITFPGGKLLRSPLLALGMAWY,failed
9,MATFRKRGKYWEYRVKYTDSAGKQLVASHGGYRLKSSAQDAAEAVEDDLKRGGDPSKQDVLLLDYWDQWAEAYRINGKSINTVYRYKLFRKHLKSRFDGRKLNSIRPIEWQKFINDFAAGKDRKEKTTRKRPRERSKDIVTKMNSYVRGMVKAAINERILFSDFTFGTKTSGVRSSGKVKVLDSRDFAKVKAIAIERASYRNIGALAVYIGSMTGMRISEVLALTWPDIDTKLCVIHVTRSWDHLYGTGFKPTKTDSSVRDIEISPSVIELLNKIHQEQAASYLRTGYRDEDQMIMRDPRHNVITDSACNKALHVIQNKAGIPEDKQITFHGLRHSHVSYLISKGVDIYYISKRLGHSDVTITMKVYGHLLDSQRKQEAHKAVLFMDQI,failed
10,MIYRKATEKDIAQLVELRKKQLEDEGIAPINNIDTELTHFFELSFKKNSFISWISEEDNEIIATSGVCFYKYPPSYLNPSGKVAYITNMYTKYEYRSRGIALALLKLVILEAKKRDYLFLRLHASDMGRPIYEEIGFKPFDDFMEMNLSLNRNGELEHHHHHH,not failed
11,FHSYTGELKIGASVASGQQVLRPALGKFMRQYPDLKVQLNLVNRRVDFIEEGFDVVIRIGQLNDSMLIAKKLGAINRKIFASPSYLAKQGNPDKVEQLTEHQLLIMNP,failed
12,MAVGKKDIECPPYAEGTPLSDADIKEKRVTYVEDHPDIRYSWTAGQAISKFLNGLKEGKILGVKCNKCGRVMVPPRMFCELCYKPIDGWVELKDTGTVETFSISYIDPDARPLPEPVIVAVISIDGASPHMGIMHILDEVKPEDVYIGMKVKAVWKSEEEREGAITDIKYWKPLEGLEHHHHHH,failed
13,MCRVGLRAMVQERPVRVERRLSAILAADVAGYSRLMHNDEEATHAKLSALLTEAVQPAIAEHGGHIVKNTGDGFLAEFPSAVEAVRAAMQFQTSIHELTIGDVEDRRIAFRVGINIGDVIVEPHDIFGDGVNIAARLEGVAEPGGICISSSAYDQVQGKVGVEFGDLGEQNLKNIARPVRVYRMRPCNAATRPQASLLHRDTPQIGWFPNMFGGFPIRLWPALRARRARMALVIALLFVLSGGVAYWYMHQGEPQPLNHRLSIVVLPFTNLSNASEQEYFAEGITDDLSADLSRIEDSFVIAPSTARAYKNVDPKRVGRELGVRYILDGSLRRTDSLVRINARLIDARTGAEIWSERVDGDWSKSMQLQDIITGRLARRLDLELTNQESRDAEVMRPNNPDAVDLTMRGWAVLNQPYSREQLSQSRALFERALQIDPGFPKALVGLAETLAMEVNYRWTDAPADQLRRAESAVGQVLSKFPSDAMAHFVRGEIQRASGRNVEAAVGEYEAAIAINPSLAPAHGALGAAKIRVGRSAEAFAPLQMAIQLSPRDPLLSTWYFYIGHAHSHLGQYEGAIDWCGRSIAVQPLWIAYADLAAAHALTGHEREAYAAVAELRRLRPSYTVTEWLQDGKGWSDNAVFLAEFQRIADGLRKAGLPE,failed
14,MSRDLGRLLKIASNQMSTRFDIFAKKYDLTGTQMTIIDYLSRNKNKEVLQRDLESEFSIKSSTATVLLQRMEIKKLLYRKVSGKDSRQKCLKLTKKANKLETIILSYMDSDQSQMTSGLNKEEVVFLEKILKRMIESD,not failed
15,MIPPSYCFYYFIHSGGLLSLKIRCENFIRSIADLIRKAEIELPDDVVNALRKAESIEENQVAKSQLQAILKNIEIAKNHAVPMCQDTGIMIFFAELGTEFQPGFDLEAAVRDAVVLATREIPLRPNAVDPLNRNNSGNNTGSGIPDIHWKLVPGKQLKITVSPKGAGSENMSALRMFNPTEAGSIKNFVLETVINAGGMPCPPLTLGIGIGGSFDKAARLAKEALLEPLDAPMNELEQEVLEAVNALGIGCMGLGGSTTALAVHIKTAHCHTASLPVAINIQCWANRHASIVFGEEE,failed
16,MYYVYVAGYILLAAAMQLFTGNFPVSFLAFPLNIIFAAIWLFLLWILYKEYNNLRITRFLGSSKASVLSISLFIGGCLIIGLFPQLSEPEAEMRKGISASLGCYNFMTSWIFISILLLLLSNLAMITIHACRHRKQARWRFILNHTGLWLALFAGFLGSSDTQTLRIPLYKGEPKHEAFDMNGASYYLDYDMELNSFAVEYYPNGRPSRFSANVRLGNENVLLEVNHPYSYRLGEDVYLTGYDVTKGNESNYCILQVVKQPWKYVMVAGILMMLAGAVLLFINGAKAYDKLG,failed
17,MVRDNGPGERLSIPPLSGLRKFRRTLSQKYDNHYCYLWMVSSALEYVRKFGIEKEPSRPFHAYAICPKDVPHRSPSIELSYISEVVWLNRIEDDLCYMNIRSLPVSPFSFSNIEKIGFQR,not failed
18,MVNDVEVTVTYTASDEDATVTYVDDDKGGAQVGDIVTVTGKTDDSTTYTVTIPDGYEYVGTDGGVVSSDGKTVTITFTADDSDNVVIHLKHGLEHHHHHH,not failed
19,MMSTTLNTRQATTADIPFLARIEYEASLPPLNHCFWDDLLDGTGTTALQFIEAELKADACNWGNVPDFLILEAGGQPVAAAAGYVPGTDDYCPLCLSQLGAIAKELNWGEETLEGFREHYVGLWGGNLRPLFLTPQATWIIENVAVLPEARGQGFGKALLRALLAKGRSQGHEFAGIMVINGNDRARHTYESVGFKPYQTFYKDYFWEQFKIDFPGVTKFGMRLN,failed
20,EHGLLVHKAVDKWTTEEVVLWLEQLGPWASLYRDRFLSERVNGRLLLTLTEEEFSRAPYTIENSSHRRVILTELERVR,not failed
21,MKLPRLWPTALSLLCSLALAQAPASPGTTAQGPAPAAVAGLAALPGGTRLVCAGTSLWTLSTSAAPQRLPLPEDCQGLRVSPSGKVVLVSGRASVTVWRLDAEQQSDGQLWRRVALPEPARRVAFLNDSTLLLAGARGLEQLDLNTQARTLLRPGAVTGLATAPDGRRAVMGDGSRVQLVNVADGAVLSGVRCEVACPLQDVQFSRDQRGAVVQAGPVLYALREGHPATAVLRGAEGAMGFPLPDGGVWVLTAGRLERRDAQTGRREGVLRPEGVSGPAAWTPEGGLLYVAGRELVELDKTGQEVGRTALP,failed
22,MGFNVKTPLLATDVIIRLWDGENFKGIVLIERKYPPVGLALPGGFVEVGERVEEAAAREMREETGLEVRLHKLMGVYSDPERDPRAHVVSVVWIGDAQGEPKAGSDAKKVKVYRLEEIPLDKLVFDHKKIILDFLKGNY,not failed
23,MAKGDQYQAHTEKYHDKKSKKSYKPVWIIISFIILITILLLPTPAGLPVMAKAALAILAFAVVMWVTEAVTYPVSATLILGLMILLLGLSPVQDLSEKLGNPKSGDIILKGSDILGTNNALSHAFSGFSTSAVALVAAALFLAVAMQETNLHKRLALLVLSIVGNKTRNIVIGAILVSIVLAFFVPSATARAGAVVPILLGMIAAFNVSKDSRLASLLIITAVQAVSIWNIGIKTAAAQNIVAINFINQNLGHDVSWGEWFLYAAPWSIIMSIALYFIMIKFMPPEHDAIEGGKELIKKELNKLGPVSHREWRLIVISVLLLFFWSTEKVLHPIDSASITLVALGIILMPKIGVITWKGVEKKIPWGTIIVFGVGISLGNVLLKTGAAQWLSDQTFGLMGLKHLPIIATIALITLFNILIHLGFASATSLASALIPVFISLTSTLNLGDHAIGFVLIQQFVISFGFLLPVSAPQNMLAYGTGTFTVKDFLKTGIPLTIVGYILVIVFSLTYWKWLGLV,failed
24,MMYRNQCTAKEKLMNRINEVSFAVNDVLLYLDTHPCCEEAISFYQECEQERQKLLKEYAQCYGPLTVDAALESGGDTWKWVQQPFPWETEGGCRLEHHHHHH,not failed
25,MSEQPSSVSGVKKVAIIPEIHISAPVLAKIVSYVAEESVDALKPFVKAGPLFKSAVYSKETLSCVRLDKSRYYMWWSTTHSIYYHFFTKSLEAKNPHALNAVLYKPIAYENFAAECYRATLWAELYGEYEA,failed
26,MAPQPFDIDTPSLRVFLPAPELATGRAIVACPGGGYGGLAVNHEGYDWAPYFNKQGIALIVLKYRMPHGDRTLPISDAEAAMKMARDSADVWNLNPYDIGIMGSSAGGHLASTIATHTRPELRPNFQILFYPVITMDKSYTHIGSHDNLLGKDAFAELETEFSNEKQVTKETPRAFIAYSDDDKTVPPANGVNYYLGLHKNHVPAVLHIYASGGHGWGIRENFIYLEHHHHHH,failed
